Test results: patent US11285274B2, “Methods for the systemic delivery of therapeutic agents to the pulmonary system using a droplet delivery device” (PNEUMA RESPIRATORY, INC., priority 2016, dated 2022)
Values joined by “and” are separate entries in the source; they are usually repeats but may differ in a detail not shown here. Equal entries are not always repeated.

Columns and labels:
[1] = test system: patients with cystic fibrosis; details: cited from earlier work
[2] = Size exclusion chromatography (SEC) stability after aerosol generation with test device; assay type: physicochemical; details: for Peak Area %, Peak 1 / Peak Area %, Peak 2 / Peak Area %, Peak 3: Insulin (Humalog Kwikpen 200 U/ml)
From the text: Alternately, to determine the stability of active agent after droplet generation, the generated stream of droplets including the active agent may be collected and […] may be employed to monitor for any changes in large molecule aggregation and protein fragment content. Soluble protein aggregates and protein fragment content may be calculated by comparing respective peak area under the SEC-HPLC curve of dispensed protein solutions with controls (solutions remaining in the device reservoir). Drug solutions for testing include Enbrel, (ENBREL® single-use prefilled syringes in 25 mg (0.51 mL of a 50 mg/mL solution of etanercept), and insulin, (Humalog, 200 units/ml, 3 ml […] is performed with a YarraTM 3 um SEC-2000 LC column 300×7.8 mm, SecurityGuard cartridge kit and SecurityGuard cartridges GFC-2000, 4×3 mm ID. Fifty microliters of Enbrel from the syringe (ENBREL® single-use prefilled syringes in 25 mg/0.51 mL of a 50 mg/mL solution of etanercept) is diluted (4:1) (4 parts, 200 mcl of the mobile phase buffer solution to 1 part, 50 mcl Enbrel from syringe). Fifty microliter of the diluted Enbrel is injected and separation was performed at a flow rate of 1.0 ml/min. The mobile phase buffer system included a PHOS. BUFF. SALINE. […] UV detection is performed at 280 nm. […] Aerosol collection and SEC is performed in a similar fashion as for the Enbrel analysis and aerosol collection. […] Fifty microliters of the collected aerosol spray is injected onto the SEC column for analysis, while 50 mcl of the […] insulin solution is injected onto the SEC column for control samples.

[3] = Gel electrophoresis of active agent after droplet generation; assay type: physicochemical
From the text: To determine the stability of active agent after droplet generation, the generated stream of droplets including the active agent is collected and the molecular weight of the active agent is verified using gel electrophoresis.

[4] = aerosolized with test device (20 actuations), SEC
[5] = Insulin aerosolized with test device
[6] = Enbrel aerosolized with test device
[7] = Enbrel aerosolized, average of S1 and S2
[8] = Enbrel diluted 4:1 (10 mg/ml), control (not aerosolized), SEC, UV 280 nm

Compound: NC[C@H]1O[C@H](O[C@H]2[C@H](O)[C@@H](O[C@H]3O[C@H](CO)[C@@H](O)[C@H](N)[C@H]3O)[C@H](N)C[C@@H]2N)[C@H](N)C[C@@H]1O [tobramycin]
- pulmonary function and kidney side effects ([1]; administration by inhalation): significantly improves pulmonary function without severe side effects to kidney functions
- serum levels and kidney toxicity ([1]; intravenous administration): very high serum levels that are toxic to the kidneys

Compound: Insulin
- Peak Area %, Peak 1 [2, 4]: 27.881% and 28.721%
- Peak Area %, Peak 2 [2, 4]: 69.780% and 67.807%
- Peak Area %, Peak 3 [2, 4]: 2.184% and 2.797%
- Peak Area %, Peak 1 ([2]; control (not aerosolized), SEC): 29.926%
- Peak Area %, Peak 2 ([2]; control (not aerosolized), SEC): 69.630%
- Peak Area %, Peak 3 ([2]; control (not aerosolized), SEC): 0%
- fraction of the ejected dose forming a fragment which elutes at ~25 minutes [2, 5]: 2.5%
- fraction of the ejected dose structurally unchanged [2, 5]: 97.5%
- Peak Area %, Peak 3, Avg. ([2]; Insulin aerosolized, average of S1 and S2): 2.4905%

Compound: adalimumab
- change in electrophoretic mobility (molecular weight) of post-aerosol active agent from control [3]: negligible change

Compound: bevacizumab
- change in electrophoretic mobility (molecular weight) of post-aerosol active agent from control [3]: negligible change

Compound: etanercept [Enbrel]
- change in electrophoretic mobility (molecular weight) of post-aerosol active agent from control [3]: negligible change
- fraction of the dose forming molecular fragments with elution times of 13 and 25 minutes [2, 6]: 4.6%
- fraction structurally unchanged after delivering an aerosol dose [2, 6]: 95.4%
- Peak Area %, Peak 4, Avg. [2, 7]: 0.3545%
- Peak Area %, Peak 5, Avg. [2, 7]: 4.2755%
- Peak Area %, Peak 4 [2, 8]: 0%
- Peak Area %, Peak 5 [2, 8]: 0%
